Reference: doi:10.1101/2025.08.07.669093 (bioRxiv, 2025)
Each block holds one binder with its values, some of them ahead of it.

Assays:
Test in all cases: ITC
[1] = molecular target: Escherichia coli RelA, full-length (Escherichia coli (K-12 entry; strain …, UniProt P0AG20)
[2] = molecular target: Rel from Chlorobaculum tepidum, full-length (Chlorobaculum tepidum (TLS entry; …, UniProt Q8KC80)
[3] = molecular target: RelCt^R215E (Chlorobaculum tepidum)

Escherichia coli RelA, full-length (Escherichia coli, sequence (P0AG20 whole entry): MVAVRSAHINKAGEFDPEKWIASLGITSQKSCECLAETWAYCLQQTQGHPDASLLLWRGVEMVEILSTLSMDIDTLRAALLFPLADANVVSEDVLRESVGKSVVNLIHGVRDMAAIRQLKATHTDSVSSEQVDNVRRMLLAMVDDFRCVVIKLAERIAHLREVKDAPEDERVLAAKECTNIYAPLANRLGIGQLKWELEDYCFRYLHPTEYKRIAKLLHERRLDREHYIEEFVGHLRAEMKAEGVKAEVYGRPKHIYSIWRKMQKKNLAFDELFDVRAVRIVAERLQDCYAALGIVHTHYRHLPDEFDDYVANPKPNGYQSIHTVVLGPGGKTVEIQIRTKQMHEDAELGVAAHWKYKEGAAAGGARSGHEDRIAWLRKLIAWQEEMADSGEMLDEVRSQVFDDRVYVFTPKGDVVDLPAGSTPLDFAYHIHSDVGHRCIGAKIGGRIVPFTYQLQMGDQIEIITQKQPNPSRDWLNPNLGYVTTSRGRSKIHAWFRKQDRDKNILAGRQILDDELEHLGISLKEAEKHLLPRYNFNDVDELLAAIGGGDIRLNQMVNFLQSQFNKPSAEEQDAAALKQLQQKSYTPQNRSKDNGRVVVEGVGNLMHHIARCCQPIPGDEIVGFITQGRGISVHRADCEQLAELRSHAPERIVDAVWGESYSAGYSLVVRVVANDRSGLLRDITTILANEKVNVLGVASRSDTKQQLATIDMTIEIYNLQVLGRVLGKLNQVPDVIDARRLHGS

B1: Nb120 (VHH)
VHH: QVQLVESGGGLVQPGGSLRLSCAASGTIRSLNAMAWYRQAPGKERELAARISSGGTTTYADSVKGRFTISRDNAKNTLYLQMNSLKPEDTAVYYCKANRFSTYGYRDDIWGQGTQVTVS
binding result [1]: no binding

B3: Nb585 (VHH)
VHH: QVQLQESGGGLVQAGGSLRLSCAASGFTFEDYTIGWFRQAPGKEREGVSLISNSDGFTSYADSVKGQFTISSENAKNTVYLQMDNLKPEDTAVYYCAATEVLAHLMWRPSNWGYWGQGTQVTV
fold drop in affinity against RelCt [3]: 28 fold | Kd [2]: 21 nM

B5: Nb94 (VHH)
VHH: QVQLVESGGGMVQPGGSLRLSCAASGFTFSTYSMGWFRQAPGQEREFVAAISWSGDSAYYADSVKGRFTISRDNAKNTVYLQMNSLKFEDTAVYYCNADLDGLGYDYWGQGTQVTVS
Kd [1]: 13 nM

More lines, now with the values ahead:

Kd [2]: 186 nM
B2: Nb898 (VHH)
VHH: QVQLQESGGGLVQAGGSLRLSCAASGSIESINAMAWYRQAPGKPRELVAVIAKSDGSTTYAVPVKGRFTISRDDAKNTVYLQMNSLKPEDTAIYYCNKIPNFTYWGQGTQVTVSS

Kd [1]: 157 nM
B4: Nb96 (VHH)
VHH: QVQLQESGGGLVQAGGSLRLSCAASGSIFDIKVMAWYRQAPGKSRELVAVHASADDSTTYEKSVKGRFTISRDNAKNTVYLQMNSLKPEDTAIYYCNRIPNFTHWGQGTQVTVS
